# Source: US20100260668A1 (published 2010)
# B1: DVD450 (VEGF/DLL4 DVD-Ig) (bispecific antibody, human IgG1)
# VH: EVQLVESGGGLVQPGGSLRLSCAASGFTISDYWIHWVRQAPGKGLEWVAGITPAGGYTYYADSVKGRFTISADTSKNTAYLQMNSLRAEDTAVYYCARFVFFLPYAMDYWGQGTLVTVSSASTKGPSVFPLAPQVQLVQSGAEVKKPGASVKISCKASGYSFTAYYIHWVKQAPGQGLEWIGYISSYNGATNYNQKFKGRVTFTTDTSTSTAYMELRSLRSDDTAVYYCARDYDYDVGMDYWGQGTLVTVSS
# VL: DIQMTQSPSSLSASVGDRVTITCRASQDVSTAVAWYQQKPGKAPKLLIYSASFLYSGVPSRFSGSGSGTDFTLTISSLQPEDFATYYCQQSYTTPPTFGQGTKVEIKRTVAAPSVFIFPPDIVMTQSPDSLAVSLGERATISCRASESVDNYGISFMKWFQQKPGQPPKLLIYAASNQGSGVPDRFSGSGSGTDFTLTISSLQAEDVAVYYCQQSKEVPWTFGGGTKVEIKR
# notes: HC linker long, LC linker long; also called DVD450H; DVD450L
# B2: DVD520 (VEGF/DLL4 DVD-Ig) (bispecific antibody, human IgG1)
# VH: EVQLVESGGGLVQPGGSLRLSCAASGFTISDYWIHWVRQAPGKGLEWVAGITPAGGYTYYADSVKGRFTISADTSKNTAYLQMNSLRAEDTAVYYCARFVFFLPYAMDYWGQGTLVTVSSASTKGPSVFPLAPEVQLQQSGPELEKPGASVKISCKASGYSFTGYNMNWVKQSNGKSLEWIGNIDPYFGGTNYNQKFKGKATLTVDKSSSTAYMQLKSLTSEDSAVYYCARNYDYDGGCFDYWGQGTTLTVSS
# VL: DIQMTQSPSSLSASVGDRVTITCRASQDVSTAVAWYQQKPGKAPKLLIYSASFLYSGVPSRFSGSGSGTDFTLTISSLQPEDFATYYCQQSYTTPPTFGQGTKVEIKRTVAAPSVFIFPPQAVVTQESALTTSPGETVTLTCRSSTGAVTTSNYANWVQEKPDHLFTGLIGGTNNRAPGVPARFSGSLIGDKAALTITGAQTEDEAIYFCALWYSNHWVFGGGTKLTVLG
# notes: HC linker long, LC linker long; also called DVD520H; DVD520L
# B3: DVD472 (VEGF/DLL4 DVD-Ig) (bispecific antibody, human IgG1)
# VH: EVQLVESGGGLVQPGGSLRLSCAASGFTISDYWIHWVRQAPGKGLEWVAGITPAGGYTYYADSVKGRFTISADTSKNTAYLQMNSLRAEDTAVYYCARFVFFLPYAMDYWGQGTLVTVSSASTKGPSVFPLAPEVQLVESGGGLVQPGGSLRLSCAASGFTFTDNWISWVRQAPGKGLEWVGYISPNSGFTYYADSVKGRFTISADTSKNTAYLQMNSLRAEDTAVYYCARDNFGGYFDYWGQGTLVTVSS
# VL: DIQMTQSPSSLSASVGDRVTITCRASQDVSTAVAWYQQKPGKAPKLLIYSASFLYSGVPSRFSGSGSGTDFTLTISSLQPEDFATYYCQQSYTTPPTFGQGTKVEIKRTVAAPSVFIFPPDIQMTQSPSSLSASVGDRVTITCRASQDVSTAVAWYQQKPGKAPKLLIYSASFLYSGVPSRFSGSGSGTDFTLTISSLQPEDFATTYYCQQSYTGTVTFGQGTKVEIKR
# notes: HC linker long, LC linker long; also called DVD472H; DVD472L
# B4: DVD496 (VEGF/DLL4 DVD-Ig) (bispecific antibody, human IgG1)
# VH: EVQLVESGGGLVQPGGSLRLSCAASGFTISDYWIHWVRQAPGKGLEWVAGITPAGGYTYYADSVKGRFTISADTSKNTAYLQMNSLRAEDTAVYYCARFVFFLPYAMDYWGQGTLVTVSSASTKGPSVFPLAPEVQLQQSGPELVKPGASVKMSCKASGYTFTSYVINWVKQKPGQGLEWIGLINPYNDGTKYNEKFKVKATLTSDKSSSTAYMELSSLTSEDSAVYYCASYYYGSRYYFDYWGQGTTLTVSS
# VL: DIQMTQSPSSLSASVGDRVTITCRASQDVSTAVAWYQQKPGKAPKLLIYSASFLYSGVPSRFSGSGSGTDFTLTISSLQPEDFATYYCQQSYTTPPTFGQGTKVEIKRTVAAPSVFIFPPDIQMTQSSSYLSVSLGGRVTITCKASDHINNWLAWYQQKPGNAPRLLISGATSLETGVPSRFSGSGSGKDYTLSITSLQTEDVATYYCQQYWSIPLTFGAGTKLELKR
# notes: HC linker long, LC linker long; also called DVD496H; DVD496L
# B5: DVD519 (DLL4/VEGF DVD-Ig) (bispecific antibody, human IgG1)
# VH: EVQLQQSGPELEKPGASVKISCKASGYSFTGYNMNWVKQSNGKSLEWIGNIDPYFGGTNYNQKFKGKATLTVDKSSSTAYMQLKSLTSEDSAVYYCARNYDYDGGCFDYWGQGTTLTVSSASTKGPSVFPLAPEVQLVESGGGLVQPGGSLRLSCAASGFTISDYWIHWVRQAPGKGLEWVAGITPAGGYTYYADSVKGRFTISADTSKNTAYLQMNSLRAEDTAVYYCARFVFFLPYAMDYWGQGTLVTVSS
# VL: QAVVTQESALTTSPGETVTLTCRSSTGAVTTSNYANWVQEKPDHLFTGLIGGTNNRAPGVPARFSGSLIGDKAALTITGAQTEDEAIYFCALWYSNHWVFGGGTKLTVLGQPKAAPSVTLFPPDIQMTQSPSSLSASVGDRVTITCRASQDVSTAVAWYQQKPGKAPKLLIYSASFLYSGVPSRFSGSGSGTDFTLTISSLQPEDFATYYCQQSYTTPPTFGQGTKVEIKR
# notes: HC linker long, LC linker long; also called DVD519H; DVD519L
# B6: DVD471 (DLL4/VEGF DVD-Ig) (bispecific antibody, human IgG1)
# VH: EVQLVESGGGLVQPGGSLRLSCAASGFTFTDNWISWVRQAPGKGLEWVGYISPNSGFTYYADSVKGRFTISADTSKNTAYLQMNSLRAEDTAVYYCARDNFGGYFDYWGQGTLVTVSSASTKGPSVFPLAPEVQLVESGGGLVQPGGSLRLSCAASGFTISDYWIHWVRQAPGKGLEWVAGITPAGGYTYYADSVKGRFTISADTSKNTAYLQMNSLRAEDTAVYYCARFVFFLPYAMDYWGQGTLVTVSS
# VL: DIQMTQSPSSLSASVGDRVTITCRASQDVSTAVAWYQQKPGKAPKLLIYSASFLYSGVPSRFSGSGSGTDFTLTISSLQPEDFATTYYCQQSYTGTVTFGQGTKVEIKRTVAAPSVFIFPPDIQMTQSPSSLSASVGDRVTITCRASQDVSTAVAWYQQKPGKAPKLLIYSASFLYSGVPSRFSGSGSGTDFTLTISSLQPEDFATYYCQQSYTTPPTFGQGTKVEIKR
# notes: HC linker long, LC linker long; also called DVD471H; DVD471L
# B7: DVD495 (DLL4/VEGF DVD-Ig) (bispecific antibody, human IgG1)
# VH: EVQLQQSGPELVKPGASVKMSCKASGYTFTSYVINWVKQKPGQGLEWIGLINPYNDGTKYNEKFKVKATLTSDKSSSTAYMELSSLTSEDSAVYYCASYYYGSRYYFDYWGQGTTLTVSSASTKGPSVFPLAPEVQLVESGGGLVQPGGSLRLSCAASGFTISDYWIHWVRQAPGKGLEWVAGITPAGGYTYYADSVKGRFTISADTSKNTAYLQMNSLRAEDTAVYYCARFVFFLPYAMDYWGQGTLVTVSS
# VL: DIQMTQSSSYLSVSLGGRVTITCKASDHINNWLAWYQQKPGNAPRLLISGATSLETGVPSRFSGSGSGKDYTLSITSLQTEDVATYYCQQYWSIPLTFGAGTKLELKRTVAAPSVFIFPPDIQMTQSPSSLSASVGDRVTITCRASQDVSTAVAWYQQKPGKAPKLLIYSASFLYSGVPSRFSGSGSGTDFTLTISSLQPEDFATYYCQQSYTTPPTFGQGTKVEIKR
# notes: HC linker long, LC linker long; also called DVD495H; DVD495L
# B8: DVD449 (DLL4/VEGF DVD-Ig) (bispecific antibody, human IgG1)
# VH: QVQLVQSGAEVKKPGASVKISCKASGYSFTAYYIHWVKQAPGQGLEWIGYISSYNGATNYNQKFKGRVTFTTDTSTSTAYMELRSLRSDDTAVYYCARDYDYDVGMDYWGQGTLVTVSSASTKGPSVFPLAPEVQLVESGGGLVQPGGSLRLSCAASGFTISDYWIHWVRQAPGKGLEWVAGITPAGGYTYYADSVKGRFTISADTSKNTAYLQMNSLRAEDTAVYYCARFVFFLPYAMDYWGQGTLVTVSS
# VL: DIVMTQSPDSLAVSLGERATISCRASESVDNYGISFMKWFQQKPGQPPKLLIYAASNQGSGVPDRFSGSGSGTDFTLTISSLQAEDVAVYYCQQSKEVPWTFGGGTKVEIKRTVAAPSVFIFPPDIQMTQSPSSLSASVGDRVTITCRASQDVSTAVAWYQQKPGKAPKLLIYSASFLYSGVPSRFSGSGSGTDFTLTISSLQPEDFATYYCQQSYTTPPTFGQGTKVEIKR
# notes: HC linker long, LC linker long; also called DVD449H; DVD449L
# B9: DVD525 (DLL4/VEGF DVD-Ig) (bispecific antibody, human IgG1)
# VH: B5 VH
# VL: QAVVTQESALTTSPGETVTLTCRSSTGAVTTSNYANWVQEKPDHLFTGLIGGTNNRAPGVPARFSGSLIGDKAALTITGAQTEDEAIYFCALWYSNHWVFGGGTKLTVLGQPKAAPDIQMTQSPSSLSASVGDRVTITCRASQDVSTAVAWYQQKPGKAPKLLIYSASFLYSGVPSRFSGSGSGTDFTLTISSLQPEDFATYYCQQSYTTPPTFGQGTKVEIKR
# notes: HC linker long, LC linker short; also called DVD525H; DVD525L
# B10: DVD477 (DLL4/VEGF DVD-Ig) (bispecific antibody, human IgG1)
# VH: B6 VH
# VL: DIQMTQSPSSLSASVGDRVTITCRASQDVSTAVAWYQQKPGKAPKLLIYSASFLYSGVPSRFSGSGSGTDFTLTISSLQPEDFATTYYCQQSYTGTVTFGQGTKVEIKRTVAAPDIQMTQSPSSLSASVGDRVTITCRASQDVSTAVAWYQQKPGKAPKLLIYSASFLYSGVPSRFSGSGSGTDFTLTISSLQPEDFATYYCQQSYTTPPTFGQGTKVEIKR
# notes: HC linker long, LC linker short; also called DVD477H; DVD477L
# B11: DVD455 (DLL4/VEGF DVD-Ig) (bispecific antibody, human IgG1)
# VH: B8 VH
# VL: DIVMTQSPDSLAVSLGERATISCRASESVDNYGISFMKWFQQKPGQPPKLLIYAASNQGSGVPDRFSGSGSGTDFTLTISSLQAEDVAVYYCQQSKEVPWTFGGGTKVEIKRTVAAPDIQMTQSPSSLSASVGDRVTITCRASQDVSTAVAWYQQKPGKAPKLLIYSASFLYSGVPSRFSGSGSGTDFTLTISSLQPEDFATYYCQQSYTTPPTFGQGTKVEIKR
# notes: HC linker long, LC linker short; also called DVD455H; DVD455L
# Molecular target: T1, DLL4 (DLL4 ECD/His tag, R&D Systems 1506-D4-050) (UniProt Q9NR61 27-529)
# T1 construct: extracellular domain; not shown: His tag
# Test: Direct bind ELISA on DLL4; DLL4 domain C-term., HC long, LC long
# Experimental: (§1) Enzyme Linked Immunosorbent Assays to screen for antibodies that bind a desired target antigen were performed as follows. […] Plates were washed four times with PBS containing 0.02% Tween 20. Plates were blocked by the addition of 300 μL/well blocking solution (non-fat dry milk powder, various retail suppliers, diluted to 2% in PBS) for ½ hour at room temperature. Plates were washed four times after blocking with PBS containing 0.02% Tween 20.
# (§2) Alternatively, one hundred microliters per well of 10 μg/ml of Histidine (His) tagged desired target antigen (R&D Systems, Minneapolis, Minn.) was added to ELISA plates coated with monoclonal mouse anti-polyHistidine antibody as described above and incubated for 1 hour at room temperature. Wells were washed four times with PBS containing 0.02% Tween 20.
# (§3) One hundred microliters of antibody or DVD-Ig preparations diluted in blocking solution as described above was added to the desired target antigen plate or desired target antigen/FC fusion plate or the anti-polyHistidine antibody/His tagged desired target antigen plate prepared as described above and incubated for 1 hour at room temperature. Wells are washed four times with PBS containing 0.02% Tween 20.
row,Binder,EC50 [nM]
1,B1,1.99
2,B2,17.3
3,B3,2.78
4,B4,5.59

# Molecular target: T1, DLL4 (DLL4 ECD/His tag, R&D Systems …)
# Test: Direct bind ELISA on DLL4; DLL4 domain N-term., HC long, LC long
# Experimental: as §1, §2, §3
row,Binder,EC50 [nM]
1,B5,1.53
2,B6,0.89
3,B7,0.33
4,B8,0.36

# Molecular target: T1, DLL4 (DLL4 ECD/His tag, R&D Systems …)
# Test: Direct bind ELISA on DLL4; DLL4 domain N-term., HC long, LC short
# Experimental: as §1, §2, §3
row,Binder,EC50 [nM]
1,B9,1
2,B10,0.69
3,B11,0.24
